Reference: the DeepSol protein solubility set

Test: soluble on expression in E. coli; label from the status in PepcDB or PDB records

| Sequence | soluble on expression in E. coli |
| --- | --- |
| MSFKDYEYKRPNIEELKEKFTVALEKFDNAKTVEEQKQVIHSINEIRNDFGTMGNLCYIRHSVDTTDAFYKEEQDFFDEFSPVVQGYGTKYYNALIHSPFREELEAYYGKQLFALAECDLKTYSDEVVKDLQLENKLSSQYTQLLASAKIDFAGEERTLSQLIPFMQGKERSERKAASEAYYGFLAENEEELDRIYDELVKVRTKIAKSLGFKNFVELGYARMYRTDYNAEMVANYRQQVLDYIVPVTTELRKRQQARIGVEKLAYYDENFEFPTGNPTPKGDADWIVNHGKTMYKELSAETDEFFNFMLDNDLLDLVAKKGKAGGGYCTYIENYKAPFIFSNFNGTSGDIDVLTHEAGHAFQVYESRKFEIPEYNWPTYEACEIHSMSMEFFTWPWMKLFFEEDADKYYFSHLSSALLFLPYGVSVDEYQHYVYENPEASPEERKTAWRNIEKKYLPHRDYEDNDYLERGGFWQRQGHIYSSPFYYIDYTLAQICALQFWKRARDNRQEAWEDYVNLCQQGGSKSFLELVEVANLTSPFAEGCVKSVITEIEAWLHAIDDTKL | not soluble |
| MYSYADRLRAVELYIRLGKRLNTTIRQLGYPTKNALRGWYREYVQHLDLRTQPVARAPKYSEAQRQAALEHFRTHDRCISGTMRALGYPGRGTLTAWVREAFPEARTSMVGRSWHPGYSEEVRQAGVIGLCSGDESAQQVADRLGVSRPTLYSWKDQLLGHEASSSMKRRKANPKVPEREELERKLEALQRDVRQLQLEHDLLKKANELLKKGLGVDLLILSNREKTQLIDALKEVYRLPELLAQLRIARSSYFYHRARMCLADKYAAVRLSLAEIFEANRRCYGYRRLQASLARKSVIVSEKVVQRLMKQEHLAVARPRRRRFGSYLGEISPAPENLINRDFHADAPNVKWLTDITEFQIPAGKVYLSPIIDCFDGMVISWSIGTQPDAGLVNTMLDAAIGTVANGEERPIIHSDRGAHYRWPGWLTRISEARLVRSMSRKGCSQDNAACEGFFGRLKTELFYPRDWKAITIEQFVAEVDAYIRWYNEKRIKISLGSLSPVEYRQSLGLKLAAALEHHHHHH | soluble |
| MVKTEPLQITTELPGRTSAYRIAEVRPQVSGIILKRNFKEGSDIEAGVSLYQIDPATYQATYDSAKGDLAKAQAAANIAQLTVNRYQKLLGTQYISKQEYDQALADAQQANAAVTAAKAAVETARINLAYTKVTSPISGRIGKSNVTEGALVQNGQATALATVQQLDPIYVDVTQSSNDMMRLKQELANGTLKQENGKAKVSLITSDGIKFPQDGTLEFSDVTVDQTTGSITLRAIFPNPDHTMMPGMFVRARLEEGLNPNAILVPQQGLEHHHHHH | soluble |
| MGSDKIHHHHHHMSPRCSTCGMGQLCLPVGMNQQDLQKMDTLVQERVRVHKGETLYRMGDPLTAVYAIRFGTLKTHVTTEDGRSQITGFHLPGEVVGLDGLGEMQHASDATALEDTEVCVVRLSDLQSLSMDLPSLQQQFLRLMGKEISNDQLMLVTLGSMRAEERLAAFLINLSERLSARGYSSTEFVMRMSREEIGSYLGLKLETVSRLFSRFAEAGLIQIRQRHVKLVDMAGIKQVYSRSC | not soluble |
| SLIKKVKIKKFNGRDFYDMEDYVAVEESYNIFINGEFVKSLSMSPNFLNEFAVGFAISEGFLNKIDKVEVDKNNINIFGEKNDREIKNNKNNKEIKIDIEIIKKIISYEIKAKYWEITGSFHWASMFDLKGNSIIFVEDIGRHNAVDKVIGYAILNNYNLNKLILRYSGRIPSDIVKKAINSGLNIIISKSPPTDKAIELAEENNILLIGFARNGKFNIYTSGRLWEE | soluble |
| MAKKKDEITIRSSAAEYLTYVASVGDQQDSIEMRYEDENIWLTQKMMATLYDVDVRTINEHIKKIYSDSELEEDSTIRNFRIVQTEGSRQVTRDTKHYNLQMIIAVGFKVNSERAVQFRKWVNQIAKDYTIKGWVMDDERLKRGTYLTEKYFDEQLERIREIRASERKFYQKITDLYATAIDYDKNAAMTRRFYSTVQNKMHYAVHGHTAAELIVERADHTKEHMGLTTWEDAPEGKIKKSDVTVAKNYLSQDEMKQLNRMVTAYLDFAENMTLRHIPLTMQDWEKRLNSFIEMFDYGILQDAGKVSAEIAKLHAETEFEKYRVIQDRLFMSDFDKFMLELEENTKK | not soluble |
| AHHHHHHGSIPIAKPLIGEEEINAVIEVLKSGMLAHGKEVEAFEREFASYIGVKHGIAVVNGTAALDIALKALKIKPGDEIITTPFTFIASANAILFQGAKPVFADIDPKTYNLDPDEVLEKINEKTKAIIVVHLYGQPADMKAFKEIAEDYKLYLIEDCAQAHGAEFEGQKVGTFGDIAAFSFYPTKNMTTGEGGMVLTNDDELARRARLIRNHGQTEKYLHEELGYNLRMTNIAAALGRVQLRKLDKWNEIRIENAELLTKGIKRIKGLTPPYVDKRVKHVFHQYVIRVEDDFPLTRDELREKLMEKGIGTAVHYPMPVHHQPLYQRLGYSKDCCPNAIEASKRVLSLPVHPAVSKEDINYIIRTLEELG | not soluble |
| MSLIKIGVIADDFTGATDIASFLVENGLPTVQINGVPTGKMPEAIDALVISLKTRSCPVVEATQQSLAALSWLQQQGCKQIYFKYCSTFDSTAKGNIGPVTDALMDALDTPFTVFSPALPVNGRTVYQGYLFVMNQLLAESGMRHHPVNPMTDSYLPRLVEAQSTGRCGVVSAHVFEQGVDAVRQELARLQQEGYRYAVLDALTEHHLEIQGEALRDAPLVTGGSGLAIGLARQWAQENGNQARKAGRPLAGRGVVLSGSCSQMTNRQVAHYRQIAPAREVDVARCLSIETLAAYAHELAEWVLGQESVLAPLVFATASTDALAAIQQQYGAQKASQAVETLFSQLAARLAAEGVTRFIVAGGETSGVVTQSLGIKGFHIGPTISPACREGHHHHHH | not soluble |
| MGSDKIHHHHHHMSWSSAIFTGAVVHQRHRPKKHSLRYQVFCLLVDLDELPAIDKSLWLLGYNRRAILRIDDRDHGLGIPGGLKAWVANHVERAGLNTEGMKVSMLCYPRMFGYVFNPLTLYYCYGPSGTLLALLYEVENTFHERHTYVIPASVEEDGAIRHACAKQMYVSPFMPMECLYRFKIVPPGETVTVAINEADEQGPLLYASFCGKRRTLDDRALAKVLVRYPLMTLKVMGAIHWEALKLWVKGVPLHRHRKAQNPIASSIIPPEAANARSPS | not soluble |
| MSRLTELLRQVRKADAQLGTDLEAEVAALTKRRTFGLVFEQHQPEAVELPGRVVRRGDKVRVLPPRGGTKAGDQRLWRTTRIECVDGQRVAHLAELDVEEPETRAVLADDVVVVAEFRDRIYPGLVETGRVERGGDKPFHTVVNAENYHALEMLTYTHRHSIDAIYIDPPYNTGARDWKYDNDYVASDDDYRHSKWLAFMERRLKICRELMRSDATLVATIDEHEVNRLGVLLDQLFPESTRQLVTIVNNPKGVTQGYLSRVEEYAFFVFGPDARIGSVDDDLLTHRDMADAEGELQRPRWKGLLRSGDDSLRADRKDMFYPVWFDESTGRLSHAGEALPLDETPDFSPQDGLTPIWPIRRDMKEGPTRAAPRRSILDYALHPHL | not soluble |
| MIVVVNEQQVEVDEQTTIAALLDSLGFGDRGIAVALNFSVLPRSDWATKICELRKPVRLEVVTAVQGG | soluble |
| MIKLVFRYSPTKTVDGFNELAFGLGDGLPWGRVKKDLQNFKARTEGTIMIMGAKTFQSLPTLLPGRSHIVVCDLARDYPVTKDGDLAHFYITWEQYITYISGGEIQVSSPNAPFETMLDQNSKVSVIGGPALLYAALPYADEVVVSRIVKRHRVNSTVQLDASFLDDISKREMVETHWYKIDEVTTLTESVYK | soluble |
| MTFGAGHLRAAEALIEAVRKKSPEAEITHLDFGAFISKTLNTIVKNTYIELIKHTPRLYGMFYYRTSKIRPQSLIQRFINILGRKEFLDYIKGLNPDVIICTYPVIAGVLGELRFKGVIHAPVVSVVTDYGVHSQYIQRGVDLYIAGCQDVYKDLIAGGIARERIRITGIPVDPKFEEELEHHHHHH | not soluble |
| MAVQYKSTTTEHKFKHLSVYERGQIAALLKEGKSQRYIANKLGRSPSTISREIKRGTTMQMRTDLSTYKVYFPETGQAVYEKNRMNCGAKRKLAQVEDFLKFAEDKILREKWSPDAVVGLCRRDPKWQNSTIVCTKTLYNYIDLGLIKVRNIDLNLKLRLKS | soluble |
| MSLYDVTEWKHVFKLDPNKDLPDEQLEILCESGTDAVIIGGSDGVTEDNVLRMMSKVRRFLVPCVLEVSAIEAIVPGFDLYFIPSVLNSKNADWIVGMHQKAMKEYGELMSMEEIVAEGYCIANPDCKAAALTEADADLNMDDIVAYARVSELLQLPIFYLEYSGVLGDIEAVKKTKAVLETSTLFYGGGIKDAETAKQYAEHADVIVVGNAVYEDFDRALKTVAAVKGEEGGSHHHHHH | soluble |
| MKRLSFLTLRPRHLSFLTLQRRNALRDALRHRSAPRRAFRIGRRASRTACDAERRTIVRLSFRALQPRRLSLLTLQRRNALRDALRHRSAPRRVFRIGRRASRTACDAQRCTIVRLSFRALQPRRLSFLTLQRRSALRDALHHKSAPRCTFKIGRGASRTACDAERRTIVRLSFRALQPRRLSFLTLQRRNALGDALRHKSAPRCTFKIGREASRTACDAERRTIVRLSFRALQPRRLSFLTLQRRNALRDALRHKSAPRRAFRIGRRASRTACDAERRTIVSQISLNALEHHHHHH | not soluble |
| MSLTRFPVTALRSVDLGTPDLARSEAFYREVWGLERVGTAGGVVYLRATGRDHHVVALHRSARTELRAVTFRVADADDFEAISRNAIEQGATLIAAPAANMAPDGGTIMTLRSPEGGLLRFVHGDIRHDARPSRPELPERLAHVNLNSTDVDRTAAFYARALGFKLTDRSAAMAFVRCNSDHHAVVIAAAKVNGLNHVAFLMPTWEGVMRGSGRMIDAGYPIAWGVGRHGPGDNVFAYFIDPVGTVIEYTAEVLQVDDDYVVRGPEHWVWPPGRTDQWGIAPPKAEHVKAAQLAVGFAAEGHHHHHH | soluble |
| MSIKKSPVYNVIAVPVEKVQANDYNPNVVAPPEMRLLELSIWEDGFTMPCVCYYDKEKDVYILVDGFHRYSVLKTSKRIFQRENGMLPIVVIEKDLSNRMSSTIRHNRARGTHNIELMCHIVAELDKAGMSDQWIMKNIGMDRDELLRLKQISGLADLFANRDFSVPEDDQPGNVDKKPTR | not soluble |
| MADNYVIWFENLRMTDVERVGGKNASLGEMISQLTEKGVRVPGGFATTAEAYRAFLAHNGLSERISAALAKLDVEDVAELARVGKEIRQWILDTPFPEQLDAEIEAAWNKMVADAGGADISVAVRSSATAEDLPDASFAGQQETFLNINGLDNVKEAMHHVFASLYNDRAISYRVHKGFEHDIVALSAGVQRMVRSDSGASGVMFTLDTESGYDQVVFVTSSYGLGENVVQGAVNPDEFYVFKPTLKAGKPAILRKTMGSKHIKMIFTDKAEAGKSVTNVDVPEEDRNRFSITDEEITELAHYALTIEKHYGRPMDIEWGRDGLDGKLYILQARPETVKSQEEGNRNLRRFAINGDKTVLCEGRAIGQKVGQGKVRLIKDASEMDSVEAGDVLVTDMTDPDWEPVMKRASAIVTNRGGRTCHAAIIARELGIPAVVGCGNATELLKNGQEVTVSCAEGDTGFIYAGLLDVQITDVALDNMPKAPVKVMMNVGNPELAFSFANLPSEGIGLARMEFIINRQIGIHPKALLEFDKQDDELKAEITRRIAGYASPVDFYVDKIAEGVATLAASVYPRKTIVRMSDFKSNEYANLVGGNVYEPHEENPMLGFRGAARYVADNFKDCFALECKALKRVRDEMGLTNVEIMIPFVRTLGEAEAVVKALKENGLERGKNGLRLIMMCELPSNAVLAEQFLQYFDGFSIGSNDMTQLTLGLDRDSGLVSESFDERNPAVKVMLHLAISACRKQNKYVGICGQGPSDHPDFAKWLVEEGIESVSLNPDTVIETWLYLANELNK | soluble |
